Laboratory results: PMC4993509 (PLoS ONE, 2016)

Target: the molecule itself
Test: SEC-MALS; Superdex 200 HR 10/30 coupled to three-angle light scattering (mini-DAWN EOS) and refractive index detector, flow 0.2 ml/min

B1: C-terminal histidine-tagged SYCP1 CC (coiled-coil domain of human synaptonemal complex protein 1, residues 662-801) (domain or fragment, UniProt Q15431 662-801, looked up)
chain: DTYQKEIEDKKISEENLLEEVEKAKVIADEAVKLQKEIDKRCQHKIAEMVALMEKHKHQYDKIIEERDSELGLYKSKEQEQSSLRASLEIELSNLKAELLSVKKQLEIEREEKEKLKREAKENTATLKEKKDKKTQTFLL
notes: synaptonemal complex protein 1 (SYCP1), human, coiled-coil domain region, residues 662 (D)-801 (L); A selenomethionine-substituted form was also made and crystallised; the final model holds residues 673-767 (chain A) and 673-769 (chain B); also called SYCP CC; wildtype; source: E. coli BL21 (pET24a), purified (Ni-NTA, Superdex 200 gel filtration); not shown: His tag, C-terminal, kept
- stoichiometry N: 2
